Data on 27 molecules can be found in patent US20250320305A1 (Hoffmann-La Roche, published 2025).

First the molecules themselves.
B1: P1AE1690_Fab, humanized anti-FAP clone 212 variant VH1G2a/VL1G1a (Fab, V domains shown)
VH: QVQLVQSGAEVKKPGASVKVSCKASGYTLTDYNMDWVRQAPGKSLEWIGDIYPNTGGTIYNQKFKGRVTMTIDKSTSTVYMELSSLRSEDTAVYYCTRFRGIHYAMDYWGQGTTVTVSS
VL: EIVLTQSPATLSLSPGERATLSCRASESVDNYGLSFINWFQQKPGQAPRLLIYGTSNRGSGIPARFSGSGSGTDFTLTISSLEPEDFAVYFCQQSNEVPYTFGGGTKVEIK
notes: Fab
B2: P1AE1689_Fab, humanized anti-FAP clone 212 variant VH1G1a/VL1G1a (Fab, V domains shown)
VH: B1 VH with K43Q, S44G, K74T
VL: B1 VL
notes: Fab
B3: P1AE1693_Fab, humanized anti-FAP clone 212 variant VH1G2a/VL1G2a (Fab, V domains shown)
VH: B1 VH
VL: B1 VL with A47P
notes: Fab
B4: P1AE0400, humanized anti-CD40 antibody VH2a/VL2a, huIgG1_LALA_PG (antibody, V domains shown)
VH: EVQLLESGGGLVQPGGSLRLSCAASGYSFTGYYIHWVRQAPGKGLEWVGRVIPNAGGTSYNQKFKGRFTISVDNSKNTAYLQMNSLRAEDTAVYYCAREGIYWWGQGTTVTVSS
VL: DIQMTQSPSSLSASVGDRVTITCRSSQSLVHSNGNTFLHWYQQKPGKAPKLLIYTVSNRFSGVPSRFSGSGSGTDFTLTISSLQPEDFATYFCSQTTHVPWTFGGGTKVEIKR
notes: also called VL2a/VH2a
B5: P1AE0404, humanized anti-CD40 antibody VH2a/VL2b, huIgG1_LALA_PG (antibody, V domains shown)
VH: B4 VH
VL: DIQMTQSPSSLSASVGDRVTITCRSSQSLVHSNGNTFLHWYQQKPGQSPKLLIYTVSNRFSGVPSRFSGSGSGTDFTLTISSLQPEDFATYFCSQTTHVPWTFGGGTKVEIK
notes: huIgG1 with effector silent Fc (P329G, L234A, L235A); also called VL2b/VH2a
B6: P1AE0406, humanized anti-CD40 antibody VH2c/VL2b, huIgG1_LALA_PG (antibody, V domains shown)
VH: B4 VH with Q106H
VL: B5 VL
notes: huIgG1 with effector silent Fc (P329G, L234A, L235A); also called VL2b/VH2c
B7: P1AE0407, humanized anti-CD40 antibody VH2d/VL2b, huIgG1_LALA_PG (antibody, V domains shown)
VH: B4 VH with N61G, Q62D, K63S, F64V
VL: B5 VL
notes: huIgG1 with effector silent Fc (P329G, L234A, L235A); also called VL2b/VH2d
B8: P1AE0402, humanized anti-CD40 antibody VH2c/VL2a, huIgG1_LALA_PG (antibody, V domains shown)
VH: B4 VH with Q106H
VL: B5 VL with Q47K, S48A
notes: huIgG1 with effector silent Fc (P329G, L234A, L235A); also called VL2a/VH2c
B9: P1AE0403, humanized anti-CD40 antibody VH2d/VL2a, huIgG1_LALA_PG (antibody, V domains shown)
VH: B4 VH with N61G, Q62D, K63S, F64V
VL: B4 VL
notes: also called VL2a/VH2d
B10: P1AE0405, humanized anti-CD40 antibody VH2b/VL2b, huIgG1_LALA_PG (antibody, V domains shown)
VH: B4 VH with G44S
VL: B5 VL
notes: huIgG1 with effector silent Fc (P329G, L234A, L235A); also called VL2b/VH2b
B11: P1AE0401, humanized anti-CD40 antibody VH2b/VL2a, huIgG1_LALA_PG (antibody, V domains shown)
VH: B4 VH with G44S
VL: B5 VL with Q47K, S48A
notes: huIgG1 with effector silent Fc (P329G, L234A, L235A); also called VL2a/VH2b
B12: P1AE0817, humanized anti-CD40 antibody VH1a/VL1a, huIgG1_LALA_PG (antibody, V domains shown)
VH: QVQLVQSGAEVKKPGASVKVSCKASGYSFTGYYIHWVRQAPGQSLEWMGRVIPNAGGTSYNQKFKGRVTLTVDKSISTAYMELSRLRSDDTAVYYCAREGIYWWGQGTTVTVSS
VL: DIVMTQTPLSLSVTPGQPASISCRSSQSLVHSNGNTFLHWYLQKPGQSPQLLIYTVSNRFSGVPDRFSGSGSGTDFTLKISRVEAEDVGVYFCSQTTHVPWTFGGGTKVEIKR
B13: P1AE0993, humanized anti-CD40 antibody VH1a/VL1c, huIgG1_LALA_PG (antibody, V domains shown)
VH: B12 VH
VL: DVVVTQTPLSLSVTPGQPASISCRSSQSLVHSNGNTFLHWYLQKPGQSPQLLIYTVSNRFSGVPDRFSGSGSGTDFTLKISRVEAEDVGVYFCSQTTHVPWTFGGGTKVEIK
notes: huIgG1 with effector silent Fc (P329G, L234A, L235A)
B14: P1AE1002, humanized anti-CD40 antibody VH1b/VL1a, huIgG1_LALA_PG (antibody, V domains shown)
VH: B12 VH with Q43K
VL: B13 VL with V2I, V4M
notes: as for B13
B15: P1AE1003, humanized anti-CD40 antibody VH1b/VL1b, huIgG1_LALA_PG (antibody, V domains shown)
VH: B12 VH with Q43K
VL: B13 VL with V2I
notes: as for B13
B16: P1AE1000, humanized anti-CD40 antibody VH1d/VL1c, huIgG1_LALA_PG (antibody, V domains shown)
VH: B12 VH with T71S
VL: B13 VL
notes: as for B13
B17: P1AE1001, humanized anti-CD40 antibody VH1a/VL1b, huIgG1_LALA_PG (antibody, V domains shown)
VH: B12 VH
VL: B13 VL with V2I
notes: as for B13
B18: P1AE1004, humanized anti-CD40 antibody VH1b/VL1c, huIgG1_LALA_PG (antibody, V domains shown)
VH: B12 VH with Q43K
VL: B13 VL
notes: as for B13
B19: P1AE0999, humanized anti-CD40 antibody VH1d/VL1a, huIgG1_LALA_PG (antibody, V domains shown)
VH: B12 VH with T71S
VL: B13 VL with V2I, V4M
notes: as for B13
B20: P1AE0996, humanized anti-CD40 antibody VH1a/VL1d, huIgG1_LALA_PG (antibody, V domains shown)
VH: B12 VH
VL: B13 VL with V109L
notes: as for B13
B21: P1AE1006, humanized anti-CD40 antibody VH1c/VL1b, huIgG1_LALA_PG (antibody, V domains shown)
VH: B12 VH with Q106H
VL: B13 VL with V2I
notes: as for B13
B22: P1AE0819, humanized anti-CD40 antibody VH1d/VL1d, huIgG1_LALA_PG (antibody, V domains shown)
VH: B12 VH with T71S
VL: B13 VL with V109L
notes: as for B13
B23: P1AE1005, humanized anti-CD40 antibody VH1b/VL1d, huIgG1_LALA_PG (antibody, V domains shown)
VH: B12 VH with Q43K
VL: B13 VL with V109L
notes: as for B13
B24: P1AE0997, humanized anti-CD40 antibody VH1c/VL1a, huIgG1_LALA_PG (antibody, V domains shown)
VH: B12 VH with Q106H
VL: B13 VL with V2I, V4M
notes: as for B13
B25: P1AE0998, humanized anti-CD40 antibody VH1c/VL1d, huIgG1_LALA_PG (antibody, V domains shown)
VH: B12 VH with Q106H
VL: B13 VL with V109L
notes: as for B13
B26: P1AE1007, humanized anti-CD40 antibody VH1d/VL1b, huIgG1_LALA_PG (antibody, V domains shown)
VH: B12 VH with T71S
VL: B13 VL with V2I
notes: as for B13
B27: P1AE0818, humanized anti-CD40 antibody VH1c/VL1c, huIgG1_LALA_PG (antibody, V domains shown)
VH: B12 VH with Q106H
VL: B13 VL
notes: as for B13

Changes are numbered by the printed parent chain. In names and notes the source's numbering stands.

The target in one test is T1, biotinylated recombinant human FAP (human, UniProt Q12884 26-760, biotinylated).
T1 construct: also called biotinylated human FAP
Put plainly: SPR (Biacore).
As usually defined, the Kd is a measure of binding affinity in units of concentration. The term koff denotes the rate constant with which the complex falls apart. As a reminder, the kon is a measure of how fast the partners come together. As to B1, the Kd amounted to 0.114 nM, the “T ½” value was determined as 3.05 h, the koff was determined as 6.3e-05 s⁻¹ and the kon came out at 551000 M⁻¹ s⁻¹.
Regarding B2, the dissociation constant Kd was found to be 0.095 nM, the “T ½” value turned out to be 4.57 h, the koff came to 4.21e-05 s⁻¹ and the kon is 443000 M⁻¹ s⁻¹.
For B3, the Kd was found to be 0.135 nM, the “T ½” value is 2.68 h, the koff was 7.18e-05 s⁻¹ and the kon came to 530000 M⁻¹ s⁻¹.

Another test addresses T2, human CD40 extracellular domain with C-terminal His-AviTag (human, UniProt P25942 21-193).
T2 construct: not shown: C-terminal His-AviTag
As to the kind of experiment: SPR, antibody captured, CD40 ECD analyte. (In general: Surface plasmon resonance follows binding to a sensor surface in real time, without labels.)
The molecule B4 yielded a Kd of 4.2 nM, a koff of 0.00699 s⁻¹ and a kon of 1.68e+06 M⁻¹ s⁻¹.
The matching figures for B5: 4.2 nM, 0.00693 s⁻¹ and 1.63e+06 M⁻¹ s⁻¹.
On to B6, for which the Kd turned out to be 4.2 nM, the koff worked out at 0.00709 s⁻¹ and the kon was found to be 1.67e+06 M⁻¹ s⁻¹.
As to B7, the Kd stood at 30 nM, the koff was 0.0355 s⁻¹ and the kon was 1.19e+06 M⁻¹ s⁻¹.
Consider B8, for which binding was put at a Kd of 4.2 nM, the koff was 0.00709 s⁻¹ and the kon turned out to be 1.67e+06 M⁻¹ s⁻¹.
The matching figures for B9: 29 nM, 0.0407 s⁻¹ and 1.4e+06 M⁻¹ s⁻¹.
On to B10, for which binding was put at a Kd of 5.1 nM, the koff stood at 0.00814 s⁻¹ and the kon came to 1.61e+06 M⁻¹ s⁻¹.
Consider B11, for which the Kd worked out at 4.6 nM, the koff was determined as 0.00787 s⁻¹ and the kon was determined as 1.69e+06 M⁻¹ s⁻¹.
In turn, B12 returned a Kd of 2.5 nM, a koff of 0.00593 s⁻¹ and a kon of 2.4e+06 M⁻¹ s⁻¹.
For the molecule B13, the Kd turned out to be 3.4 nM, the koff was 0.00898 s⁻¹ and the kon worked out at 2.68e+06 M⁻¹ s⁻¹.
B14 yielded a Kd of 2.2 nM, a koff of 0.00557 s⁻¹ and a kon of 2.54e+06 M⁻¹ s⁻¹.
B15 showed a Kd of 2.5 nM, a koff of 0.00606 s⁻¹ and a kon of 2.46e+06 M⁻¹ s⁻¹.
B16 came in with a dissociation constant Kd of 3.2 nM, a koff of 0.00862 s⁻¹ and a kon of 2.68e+06 M⁻¹ s⁻¹.
The molecule B17 gave a Kd of 2.7 nM, a koff of 0.00681 s⁻¹ and a kon of 2.56e+06 M⁻¹ s⁻¹.
For the molecule B18, the Kd turned out to be 3 nM, the koff came out at 0.00795 s⁻¹ and the kon turned out to be 2.63e+06 M⁻¹ s⁻¹.
As for B19, the Kd was determined as 2.4 nM, the koff came out at 0.00592 s⁻¹ and the kon amounted to 2.45e+06 M⁻¹ s⁻¹.
B20 showed a Kd of 3.5 nM, a koff of 0.00908 s⁻¹ and a kon of 2.59e+06 M⁻¹ s⁻¹.
B21: the Kd was found to be 2.6 nM, the koff is 0.00651 s⁻¹ and the kon was 2.53e+06 M⁻¹ s⁻¹.
In turn, B22 showed a Kd of 3.4 nM, a koff of 0.00877 s⁻¹ and a kon of 2.59e+06 M⁻¹ s⁻¹.
Regarding B23, the affinity, expressed as Kd, was 3.2 nM; the off-rate constant (koff) was 0.00816 s⁻¹; the kon worked out at 2.58e+06 M⁻¹ s⁻¹.
Turning to B24, the Kd stood at 2.3 nM, the koff was determined as 0.00603 s⁻¹ and the kon is 2.59e+06 M⁻¹ s⁻¹.
As for B25, binding was put at a Kd of 3.3 nM, the koff was 0.00896 s⁻¹ and the kon is 2.7e+06 M⁻¹ s⁻¹.
As for B26, the Kd is 2.7 nM, the koff came out at 0.00662 s⁻¹ and the kon came out at 2.5e+06 M⁻¹ s⁻¹.
The like results for B27 were, in that order, 3.2 nM, 0.00847 s⁻¹ and 2.63e+06 M⁻¹ s⁻¹.

The target in another test is T3, human CD40 expressed on cells (human, UniProt P25942 21-277).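 Further: cell binding of antibodies to Raji cells detected by flow cytometry using an Alexa488-labelled anti-human IgG secondary antibody, primary incubation 1 h at 4 °C.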
T3 construct: also called huCD40; Raji cells
Put plainly: flow cytometry, Raji cells. (A flow cytometer gives signals particle by particle.)
Protocol: CD40 positive cells (Raji cells) were detatched from the culture bottle using Trypsin and were counted using a Casy cell counter. After pelleting at 4° C., the cells were resuspended in FACS Buffer (2.5% FCS in PBS), adjusted to 2.0E+06 cells/mL, and dispensed to 96-well PP V-bottom-plates (25 μL/well=5.0E+04Zellen/well).
The CD40 specific antibodies were adjusted to 20 μg/mL in FACS buffer, resulting in a final concentration of 10 μg/mL. 20 μl were added to 25 μl cell suspension and incubated for 1 h at 4° C. The cells were then washed twice in FACS buffer. After washing, the cells were resuspended in 50 μL FACS-buffer containing secondary antibody (<huIgG>-Alexa488, c=10 μg/mL) and incubated 1 h bei 4° C. The cells were then washed twice in FACS buffer and resuspended in 70 μl/well FACS buffer for measurement using a FACS Canto (BD, Pharmingen).
By EC50 is commonly meant the midpoint of the concentration-response curve. In turn, B4 gave an EC50 of 0.12 µg/mL.
In the case of B5, a half-maximal effect (EC50) was put at 0.11 µg/mL. The EC50 values of the last two molecules are within 1.5-fold of each other.
Still for that read-out and setting: for B6 the value was 0.09 µg/mL; for B7, 0.12 µg/mL.
B8 displayed an EC50 of 0.13 µg/mL.
B9 had a concentration giving a half-maximal response (EC50) of 0.12 µg/mL.
The same measure, in the same setting: the result for B10 reads 0.09 µg/mL; that for B11, 0.13 µg/mL.
B12 returned an EC50 of 0.09 µg/mL.
In turn, B13 gave an EC50 of 0.13 µg/mL.
Same read-out and setting: for B14 the value was 0.13 µg/mL; for B15, 0.13 µg/mL; for B16, 0.14 µg/mL.
The molecule B17 gave an EC50 of 0.08 µg/mL. This EC50 lies about 1.8-fold lower than the previous one.
As for B18, a half-maximal response (EC50) required 0.14 µg/mL.
In the case of B19, the EC50 was determined as 0.15 µg/mL.
As for B20, it took 0.12 µg/mL to reach a half-maximal effect (EC50). This EC50 and that of the molecule before are within 1.5-fold of each other.
On the same count and under the same terms, the result for B21 reads 0.14 µg/mL; that for B22, 0.11 µg/mL; that for B23, 0.11 µg/mL.
B24 showed an EC50 of 0.12 µg/mL.
Molecule B25 had an EC50 of 0.12 µg/mL.
B26 had an EC50 of 0.12 µg/mL.
As for B27, the EC50 stood at 0.14 µg/mL.
